Results on 4 substances are retold here after patent publication US20210094998A1.

Among the targets are CRHR1; CRHR2; rat Y2 receptor (rat).
Common to all, as to assay: cell-based or functional assay
Assay [1] has as its target cynomolgus monkey GLP1 receptor (cynomolgus monkey) (UniProt F8V479).
The target in assay [2] is cynomolgus monkey glucagon receptor (cynomolgus monkey).
Assay [3] concerns the target human GLP1 receptor (human) (UniProt P43220).
Assay [4] has as its target human glucagon receptor (human) (UniProt P47871).
The target in assay [5] is mouse GLP1 receptor (mouse) (UniProt O35659).
Assay [6] addresses mouse glucagon receptor (mouse) (UniProt Q61606).
In assay [7] the target is rat glucagon receptor (rat) (UniProt P30082).
Assay [8] deals with human Y1 receptor (human) (UniProt P25929).
Assay [9] deals with mouse Y2 receptor (mouse) (UniProt P97295).
The target of assay [10] is rhesus monkey Y2 receptor (rhesus monkey) (UniProt Q9GK74).
rhesus monkey Y2 receptor (rhesus monkey), sequence (Q9GK74 whole entry): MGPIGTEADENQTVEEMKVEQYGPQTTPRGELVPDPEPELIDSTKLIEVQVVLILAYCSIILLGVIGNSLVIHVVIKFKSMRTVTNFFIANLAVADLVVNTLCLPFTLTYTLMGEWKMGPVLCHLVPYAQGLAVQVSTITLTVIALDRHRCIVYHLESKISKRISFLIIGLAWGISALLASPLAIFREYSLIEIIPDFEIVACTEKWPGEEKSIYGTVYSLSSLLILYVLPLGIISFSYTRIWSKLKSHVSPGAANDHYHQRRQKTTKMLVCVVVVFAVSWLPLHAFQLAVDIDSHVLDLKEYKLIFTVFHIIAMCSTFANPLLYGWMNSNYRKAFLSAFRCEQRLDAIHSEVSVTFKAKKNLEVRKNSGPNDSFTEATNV

human glucagon receptor (human), sequence (P47871 26-477): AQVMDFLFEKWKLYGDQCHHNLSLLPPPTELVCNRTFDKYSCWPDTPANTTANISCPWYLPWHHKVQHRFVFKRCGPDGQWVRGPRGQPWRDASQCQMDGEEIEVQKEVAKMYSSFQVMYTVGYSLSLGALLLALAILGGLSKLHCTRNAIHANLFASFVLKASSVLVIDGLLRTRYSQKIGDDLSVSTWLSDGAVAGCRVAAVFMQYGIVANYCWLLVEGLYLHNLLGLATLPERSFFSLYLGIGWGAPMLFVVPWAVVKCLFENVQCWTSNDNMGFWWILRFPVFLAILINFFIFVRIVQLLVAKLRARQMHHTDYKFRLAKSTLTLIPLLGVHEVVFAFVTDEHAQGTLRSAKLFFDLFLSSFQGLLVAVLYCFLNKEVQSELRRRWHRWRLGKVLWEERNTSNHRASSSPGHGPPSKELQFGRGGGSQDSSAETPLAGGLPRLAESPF
mouse glucagon receptor (mouse), sequence (Q61606 27-485): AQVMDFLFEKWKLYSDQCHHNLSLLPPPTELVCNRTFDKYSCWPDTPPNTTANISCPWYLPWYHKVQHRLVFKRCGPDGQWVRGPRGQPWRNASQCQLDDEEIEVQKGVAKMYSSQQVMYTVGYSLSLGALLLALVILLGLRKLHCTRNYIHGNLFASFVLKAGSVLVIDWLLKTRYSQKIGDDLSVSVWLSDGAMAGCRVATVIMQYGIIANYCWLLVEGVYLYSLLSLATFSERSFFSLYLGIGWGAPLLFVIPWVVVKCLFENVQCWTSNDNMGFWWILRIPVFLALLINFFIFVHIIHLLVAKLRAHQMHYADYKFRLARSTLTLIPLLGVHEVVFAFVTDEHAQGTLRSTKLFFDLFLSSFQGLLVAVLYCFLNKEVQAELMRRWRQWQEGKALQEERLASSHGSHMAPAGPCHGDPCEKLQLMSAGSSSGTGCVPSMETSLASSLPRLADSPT
rat glucagon receptor (rat), sequence (P30082 27-485): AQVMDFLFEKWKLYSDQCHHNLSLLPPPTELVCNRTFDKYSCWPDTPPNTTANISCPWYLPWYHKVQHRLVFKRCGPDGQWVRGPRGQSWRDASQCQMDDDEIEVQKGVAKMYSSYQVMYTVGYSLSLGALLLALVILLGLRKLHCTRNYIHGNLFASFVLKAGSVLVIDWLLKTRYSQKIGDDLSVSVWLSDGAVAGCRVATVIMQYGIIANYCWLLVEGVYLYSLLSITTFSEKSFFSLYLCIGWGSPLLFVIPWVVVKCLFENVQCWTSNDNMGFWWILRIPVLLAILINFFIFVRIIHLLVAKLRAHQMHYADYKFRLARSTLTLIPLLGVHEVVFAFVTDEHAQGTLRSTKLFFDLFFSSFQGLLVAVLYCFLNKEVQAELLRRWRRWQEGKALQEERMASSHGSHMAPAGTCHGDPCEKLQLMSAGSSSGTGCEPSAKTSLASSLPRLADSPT
mouse Y2 receptor (mouse), sequence (P97295 whole entry): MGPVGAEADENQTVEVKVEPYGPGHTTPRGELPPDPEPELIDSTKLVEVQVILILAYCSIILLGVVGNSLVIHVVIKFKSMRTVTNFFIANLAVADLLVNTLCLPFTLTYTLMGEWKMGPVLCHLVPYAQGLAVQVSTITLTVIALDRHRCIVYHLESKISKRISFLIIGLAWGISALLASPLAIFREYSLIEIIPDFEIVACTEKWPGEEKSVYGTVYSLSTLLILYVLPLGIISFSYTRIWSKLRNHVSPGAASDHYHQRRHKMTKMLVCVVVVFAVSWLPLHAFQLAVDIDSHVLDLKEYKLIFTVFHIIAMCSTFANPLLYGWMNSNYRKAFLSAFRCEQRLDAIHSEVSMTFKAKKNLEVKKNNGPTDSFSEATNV
mouse GLP1 receptor (mouse), sequence (O35659 22-463): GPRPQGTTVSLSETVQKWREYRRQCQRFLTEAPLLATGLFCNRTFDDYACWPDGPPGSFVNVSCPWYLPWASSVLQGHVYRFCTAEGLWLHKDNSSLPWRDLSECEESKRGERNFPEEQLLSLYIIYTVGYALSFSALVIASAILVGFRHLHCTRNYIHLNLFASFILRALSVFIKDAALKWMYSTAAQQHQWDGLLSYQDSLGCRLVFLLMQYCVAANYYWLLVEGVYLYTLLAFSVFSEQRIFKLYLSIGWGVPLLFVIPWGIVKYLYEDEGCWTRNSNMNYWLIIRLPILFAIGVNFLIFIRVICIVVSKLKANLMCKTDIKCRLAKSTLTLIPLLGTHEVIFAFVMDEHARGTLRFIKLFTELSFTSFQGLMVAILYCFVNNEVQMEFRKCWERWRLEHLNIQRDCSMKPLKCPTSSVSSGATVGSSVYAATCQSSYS
human Y1 receptor (human), sequence (P25929 whole entry): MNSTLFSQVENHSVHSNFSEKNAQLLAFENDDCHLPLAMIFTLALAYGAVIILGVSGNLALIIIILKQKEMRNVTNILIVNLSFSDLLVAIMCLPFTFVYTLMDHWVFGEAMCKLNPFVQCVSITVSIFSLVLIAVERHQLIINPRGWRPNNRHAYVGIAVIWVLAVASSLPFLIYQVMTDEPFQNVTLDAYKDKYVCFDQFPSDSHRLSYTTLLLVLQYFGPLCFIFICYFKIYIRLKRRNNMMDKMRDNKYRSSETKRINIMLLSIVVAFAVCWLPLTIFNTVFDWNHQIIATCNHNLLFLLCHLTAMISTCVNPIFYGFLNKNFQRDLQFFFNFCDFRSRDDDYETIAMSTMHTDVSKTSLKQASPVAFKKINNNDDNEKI
human GLP1 receptor (human), sequence (P43220 24-463): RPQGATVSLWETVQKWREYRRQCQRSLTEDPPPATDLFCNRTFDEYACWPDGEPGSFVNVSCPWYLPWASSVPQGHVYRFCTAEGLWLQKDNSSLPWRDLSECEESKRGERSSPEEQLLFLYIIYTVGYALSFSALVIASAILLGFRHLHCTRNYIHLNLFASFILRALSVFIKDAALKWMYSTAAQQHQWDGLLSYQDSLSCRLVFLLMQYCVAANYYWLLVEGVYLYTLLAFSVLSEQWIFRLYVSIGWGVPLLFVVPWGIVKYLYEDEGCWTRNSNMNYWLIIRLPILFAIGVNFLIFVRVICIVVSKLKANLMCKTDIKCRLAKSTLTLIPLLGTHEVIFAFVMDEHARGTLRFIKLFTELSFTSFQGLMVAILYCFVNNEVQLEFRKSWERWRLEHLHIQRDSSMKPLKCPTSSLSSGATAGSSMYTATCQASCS

Consider “Sauvagine (from UniProt P01144 1-40) (peptide)”, for which the RC50, cAMP assay is 0.000308 µM with CRHR1 and 0.0034 µM with CRHR2.
Regarding Ser-8 GLP1 (peptide), the EC50, receptor cAMP assay in assay [1] is 0.08 nM; in assay [2], more than 100 nM; in [3] it was 0.07 nM; in [4], more than 100 nM; in assay [5], 0.06 nM; in assay [6] it was more than 100 nM. In addition, the EC50, receptor cAMP assay in [7] was more than 100 nM.
Take “Sauvagine (from UniProt P01144 1-40) (peptide; unit assumed)”: the Max response, cAMP assay came out at 106% with CRHR1 and 107% in the assay with CRHR2.
In the case of PYY3-36 (peptide), the EC50, cAMP assay (LANCE) on receptor-expressing cells was 66.4 nM in assay [8], 0.03 nM in assay [9], 0.5 nM with rat Y2 receptor (rat) and 0.06 nM in [10].
